Substitutions are numbered along the chain they refer to.
B1: N3-1_I (antibody, V domains shown)
VH: QVQLQQWGPGLVNPSETLSLTCSVSGGSFATENYYWSWIRQHPGEGLEWIGNIYFSGNTYYNPSLNNRFTISFDTSKNHLSLKLPSVTAADTAVYYCARGTIYFDISGYRRVDPFHIWGQGTMVIVSS
VL: not shown
notes: IgG1; copies: 2 + 2
B2: N3-1_M (antibody, V domains shown)
VH: B1 VH with I106M
VL: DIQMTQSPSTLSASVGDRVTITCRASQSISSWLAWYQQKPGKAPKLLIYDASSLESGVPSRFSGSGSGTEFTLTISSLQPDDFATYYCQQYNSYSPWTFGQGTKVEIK
notes: IgG1
B3: N3-1_I (antibody, V domains shown)
VH: B1 VH
VL: not shown
notes: IgG1
B4: N3-1_Y (antibody, V domains shown)
VH: B1 VH with I106Y
VL: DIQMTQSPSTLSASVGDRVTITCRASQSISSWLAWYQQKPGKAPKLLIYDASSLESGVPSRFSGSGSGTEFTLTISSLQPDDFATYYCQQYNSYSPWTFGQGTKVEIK
notes: IgG1
B5: N3-1_L (antibody, V domains shown)
VH: B1 VH with I106L
VL: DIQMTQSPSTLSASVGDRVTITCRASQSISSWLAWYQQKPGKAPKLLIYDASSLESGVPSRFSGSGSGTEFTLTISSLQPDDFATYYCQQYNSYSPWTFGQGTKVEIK
notes: IgG1

molecular target: SARS-CoV-2 Omicron BA.2.12.1 spike protein ectodomain (SARS-CoV-2 Omicron BA.2.12.1, S373P); experiment: BLI; settings: both partners purified

Question: With B1 as the binder, how does the “fold improvement in Kd against wild-type N3-1” value read?
Answer: 20 fold

molecular target: SARS-CoV-2 B.1.1.529.1/BA.1 S-HexaPro (SARS-CoV-2, Omicron BA.1, Ser371Leu | Ser373Pro | Ser375Phe | Q493R); experiment: BLI; settings: both partners purified

Question: B1 was tested. Which “fold improvement in Kd against wild-type N3-1” value did it give?
Answer: 4 fold

molecular target: T1, D614G-Hexapro (WT) spike ectodomain (SARS-CoV-2 Wuhan-Hu-1 D614G, D614G); experiment: BLI; settings: both partners purified

Question: Which results are given for B2?
Answer: Kd: 4.22 nM; koff: 0.000278 s⁻¹; kon: 65900 M⁻¹ s⁻¹

Question: How did the kon turn out when B3 was run?
Answer: 76000 M⁻¹ s⁻¹

Question: With B4 as the binder, how does the Kd read?
Answer: 5.45 nM

Question: What about the koff of the same binder?
Answer: 0.000748 s⁻¹

Question: And the kon?
Answer: 137000 M⁻¹ s⁻¹

Question: Which results are given for B5?
Answer: Kd: 6 nM; koff: 0.00047 s⁻¹; kon: 78300 M⁻¹ s⁻¹

molecular target: T2, Omicron BA.1 spike protein ectodomain (BLI) (SARS-CoV-2 Omicron BA.1, strain); experiment: BLI; settings: both partners purified

Question: With B2 as the binder, how does the Kd read?
Answer: 428 nM

Question: What about the koff of the same binder?
Answer: 0.00368 s⁻¹

Question: And the kon?
Answer: 8590 M⁻¹ s⁻¹

Question: With B3 as the binder, how does the Kd read?
Answer: 331 nM

Question: And the koff?
Answer: 0.00193 s⁻¹

Question: And the kon?
Answer: 5820 M⁻¹ s⁻¹

Question: Which results are given for B4?
Answer: Kd: 709 nM; koff: 0.00791 s⁻¹; kon: 11200 M⁻¹ s⁻¹

Question: What does the source list for B5?
Answer: Kd: 660 nM; koff: 0.00429 s⁻¹; kon: 6490 M⁻¹ s⁻¹

molecular target: Omicron BA.2 spike protein ectodomain (BLI) (SARS-CoV-2, Omicron BA.2, strain); experiment: BLI; settings: both partners purified

Question: For B2, which Kd is on record?
Answer: 178 nM

Question: What about the koff of the same binder?
Answer: 0.00245 s⁻¹

Question: And the kon?
Answer: 13800 M⁻¹ s⁻¹

Question: How did the Kd turn out when B3 was run?
Answer: 121 nM

Question: And the koff?
Answer: 0.00146 s⁻¹

Question: And the kon?
Answer: 12100 M⁻¹ s⁻¹

Question: Which results are given for B4?
Answer: Kd: 225 nM; koff: 0.00447 s⁻¹; kon: 19900 M⁻¹ s⁻¹

Question: B5 was tested. Which Kd did it give?
Answer: 273 nM

Question: What about the koff of the same binder?
Answer: 0.00415 s⁻¹

Question: What about the kon of the same binder?
Answer: 15200 M⁻¹ s⁻¹

molecular target: Omicron BA.2.12 spike protein ectodomain (BLI) (SARS-CoV-2 Omicron BA.2.12.1, strain); experiment: BLI; settings: both partners purified

Question: Which Kd does the source give for B2 here?
Answer: 28 nM

Question: And the koff?
Answer: 0.000621 s⁻¹

Question: What about the kon of the same binder?
Answer: 22200 M⁻¹ s⁻¹

Question: For B3, which Kd is on record?
Answer: 76.9 nM

Question: And the koff?
Answer: 0.00112 s⁻¹

Question: And the kon?
Answer: 14600 M⁻¹ s⁻¹

Question: Which results are given for B4?
Answer: Kd: 142 nM; koff: 0.00385 s⁻¹; kon: 27100 M⁻¹ s⁻¹

Question: With B5 as the binder, how does the Kd read?
Answer: 173 nM

Question: And the koff?
Answer: 0.00339 s⁻¹

Question: What about the kon of the same binder?
Answer: 19500 M⁻¹ s⁻¹

molecular target: Omicron BA.5 spike protein ectodomain (BLI) (SARS-CoV-2 Omicron BA.5 (BA.4/5 spike), strain); experiment: BLI; settings: both partners purified

Question: With B2 as the binder, how does the Kd read?
Answer: 172 nM

Question: And the koff?
Answer: 0.00253 s⁻¹

Question: What about the kon of the same binder?
Answer: 14700 M⁻¹ s⁻¹

Question: What does the source list for B3?
Answer: Kd: 145 nM; koff: 0.00168 s⁻¹; kon: 11600 M⁻¹ s⁻¹

Question: For B4, which Kd is on record?
Answer: 337 nM

Question: What about the koff of the same binder?
Answer: 0.0072 s⁻¹

Question: And the kon?
Answer: 21300 M⁻¹ s⁻¹

Question: B5 was tested. Which Kd did it give?
Answer: 414 nM

Question: And the koff?
Answer: 0.00689 s⁻¹

Question: What about the kon of the same binder?
Answer: 16600 M⁻¹ s⁻¹

molecular target: T1, D614G-Hexapro (WT) spike ectodomain; experiment: BLI; settings: not given

Question: Which Kd does the source give for B2 here?
Answer: 4420 nM

Question: What about the koff of the same binder?
Answer: 0.00151 s⁻¹

Question: What about the kon of the same binder?
Answer: 342 M⁻¹ s⁻¹

Question: What does the source list for B3?
Answer: Kd: 1220 nM; koff: 0.000796 s⁻¹; kon: 651 M⁻¹ s⁻¹

Question: Which Kd does the source give for B4 here?
Answer: 233 nM

Question: And the koff?
Answer: 0.000325 s⁻¹

Question: What about the kon of the same binder?
Answer: 1400 M⁻¹ s⁻¹

Question: With B5 as the binder, how does the Kd read?
Answer: 54.1 nM

Question: And the koff?
Answer: 0.00037 s⁻¹

Question: What about the kon of the same binder?
Answer: 6840 M⁻¹ s⁻¹

molecular target: T2, Omicron BA.1 spike protein ectodomain …; experiment: BLI; settings: not given

Question: With B2 as the binder, how does the Kd read?
Answer: 33.2 nM

Question: And the koff?
Answer: 0.00105 s⁻¹

Question: What about the kon of the same binder?
Answer: 31700 M⁻¹ s⁻¹

Question: Which Kd does the source give for B3 here?
Answer: 20.4 nM

Question: And the koff?
Answer: 0.00136 s⁻¹

Question: What about the kon of the same binder?
Answer: 66700 M⁻¹ s⁻¹

Question: Which Kd does the source give for B4 here?
Answer: 3550 nM

Question: And the koff?
Answer: 0.00213 s⁻¹

Question: What about the kon of the same binder?
Answer: 600 M⁻¹ s⁻¹

Question: How did the Kd turn out when B5 was run?
Answer: 15200 nM

Question: What about the koff of the same binder?
Answer: 0.00357 s⁻¹

Question: And the kon?
Answer: 234 M⁻¹ s⁻¹

Reference: PMC10713552 (Communications Biology, 2023)
